Experimental data from article PMC4380498, “Molecular Insights into Frataxin-Mediated Iron Supply for Heme Biosynthesis in Bacillus subtilis” (PLoS ONE, 2015).
Values belong to the binder of their own block, whether it stands above or below them.

Key:
[1] = biological target: T1, Bacillus subtilis ferrochelatase HemH, recombinant Strep-tag II variant (Bacillus subtilis 168, UniProt P32396 1-310); assay: cell-based or functional assay
T1 sequence: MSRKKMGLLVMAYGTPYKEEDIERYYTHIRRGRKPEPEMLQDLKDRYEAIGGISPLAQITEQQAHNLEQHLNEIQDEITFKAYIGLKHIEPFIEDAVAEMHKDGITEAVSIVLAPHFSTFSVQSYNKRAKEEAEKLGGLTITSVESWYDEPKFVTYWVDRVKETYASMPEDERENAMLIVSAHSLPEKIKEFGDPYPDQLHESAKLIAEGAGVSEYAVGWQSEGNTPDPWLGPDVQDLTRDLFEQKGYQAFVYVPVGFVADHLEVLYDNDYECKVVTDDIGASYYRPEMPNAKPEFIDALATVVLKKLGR

[2] = biological target: T1, Bacillus subtilis ferrochelatase HemH, …; assay: MST; 50 nM fluorescently labelled holo-Fra (iron-charged); HemH titrated from 42.6 μM to 0.01 μM in TRIS-based NT binding analysis buffer; 25°C; Monolith NT.115; conditions: both partners purified
[3] = biological target: the molecule itself; assay: SEC; separation of the apo- and holo-forms of bsNos by size-exclusion chromatography after affinity purification from the crude protein extract

Kd [2]: 1630 ± 20 nM
B1: Bacillus subtilis frataxin homologue Fra, recombinant His6-tagged (natural protein, Bacillus subtilis 168)
chain: MDVFSEYLAGIADPFHRERTEEVLTWIKNKYPNLHTEIKWNQPMFTDHGTFIIGFSVSKKHLAVAPEKVTIAHVEDDIVKAGYDYTEQLIRIPWNGPVDYTLLEKMIEFNILDKADCSTFWRK
notes: frataxin homologue Fra of Bacillus subtilis 168, gene amplified from genomic DNA; Used iron-loaded (holo-Fra, anaerobic incubation with FeCl2) or iron-free (apo-Fra); For MST it was labelled with the cysteine-reactive Monolith NT.115 Protein Labeling Kit RED; The methods say N-terminal His6-tag fusions, while legends print Fra-His6; also called Fra-His6; holo-Fra; not shown: His6, N-terminal, kept
kcat(obs) of the frataxin-dependent conversion of protoporphyrin IX into heme b by HemH (holo-Fra varied between 0.1 and 10 μM, Michaelis-Menten fit) [1]: 0.925 s⁻¹

B2: Bacillus subtilis nitric oxide synthase bsNos, recombinant His6-tagged (enzyme, Bacillus subtilis 168, UniProt O34453 1-363, looked up)
chain: MEEKEILWNEAKAFIAACYQELGKEEEVKDRLADIKSEIDLTGSYVHTKEELEHGAKMAWRNSNRCIGRLFWNSLNVIDRRDVRTKEEVRDALFHHIETATNNGKIRPTITIFPPEEKGEKQVEIWNHQLIRYAGYESDGERIGDPASCSLTAACEELGWRGERTDFDLLPLIFRMKGDEQPVWYELPRSLVIEVPITHPDIEAFSDLELKWYGVPIISDMKLEVGGIHYNAAPFNGWYMGTEIGARNLADEKRYDKLKKVASVIGIAADYNTDLWKDQALVELNKAVLHSYKKQGVSIVDHHTAASQFKRFEEQEEEAGRKLTGDWTWLIPPISPAATHIFHRSYDNSIVKPNYFYQDKPYE
notes: nitric oxide synthase bsNos of Bacillus subtilis 168, gene amplified from genomic DNA; The holo-form (with heme b) is called dimeric and the apo-form monomeric; The two were separated by size-exclusion chromatography; also called Nos-His6; holo-bsNos; not shown: His6, N-terminal, kept
stoichiometry N [3]: 2
